Data published in patent US20200055952A1 (B CELL DESIGN, published 2020).

T1: CEACAM-6 (NCA or CD66c) (UniProt P40199 35-320, limits assumed)
T1 construct: whole, on cells
T1 sequence (looked up): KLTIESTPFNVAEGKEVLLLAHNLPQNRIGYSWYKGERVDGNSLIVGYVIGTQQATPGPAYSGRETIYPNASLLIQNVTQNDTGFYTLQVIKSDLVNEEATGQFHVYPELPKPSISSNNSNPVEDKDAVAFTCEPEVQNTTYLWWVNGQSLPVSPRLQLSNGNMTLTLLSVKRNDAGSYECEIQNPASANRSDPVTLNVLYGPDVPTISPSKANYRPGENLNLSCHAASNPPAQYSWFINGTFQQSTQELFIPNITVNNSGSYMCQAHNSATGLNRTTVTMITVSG


What was measured:
[1] = target: carcinoembryonic antigen (CEA) on WiDr human colorectal cancer cells (human) (UniProt P06731); experiment: cell-based or functional assay
CEACAM-6 (NCA or CD66c) = target: T1, CEACAM-6 (NCA or CD66c); experiment: immunofluorescence on tissues (liver and stomach) and flow cytometry on leukocytes, data not shown

Molecule	doubly selected cells (Effector Cell (CD89+): WiDr target cells (CEA+)) by flow cytometry, in vivo in SCID-CD89 mice [1]	binding result (CEACAM-6 (NCA or CD66c))
irrelevant polymeric IgA anti-peanut (antibody)	10.2%	–
anti-CEA IgA monoclonal antibody clone 15B3 (human/mouse chimeric IgA1, hybridoma culture supernatant) (antibody, V domains shown, From HAMIGA mice: human IgA1 heavy chain constant regions, mouse light chain constant regions, mouse variable regions; The hybridoma supernatant holds monomeric (no J chain) and polymeric (murine J chain) forms; also called mAb 15B3; IgA anti-CEA clone #15B3) VH: QIQLVQSGPELKKPGETVKISCKASGYTFTNYGMNWVNQAPGKGLKWMGWINTNTGEPTYAEEFKGRFAFSLETSASTAYLQINNLKNEDTATYFCARLWYLYFDVWGAGTTVTVSS VL: DIQMTQSPASQSASLGESVTITCLASQTIGTRLAWYQQKPGKSPQLLIYAATRLADGVPSRFSGSGSGTKFSFKISSLQAEDFVSYYCQQLYSTPYTFGGGTKLEIK	–	no binding
